Assay results as given in patent publication US20140363428A1 (Chugai, published 2014).

target: T1, soluble human FcRn (human, UniProt P55899 24-297; P61769 21-119); test: SPR (Biacore), pH 6.0
T1 construct: Heterodimer of alpha chain and beta2-microglobulin; also called hFcRn

Binder	Kd
Fv-4-F1383 (antibody, human IgG1, kappa) heavy: QVQLQESGPGLVKPSETLSLTCAVSGHSISHDHAWSWVRQPPGEGLEWIGFISYSGITNYNPSLQGRVTISRDNSKNTLYLQMNSLRAEDTAVYYCARSLARTTAMDYWGEGTLVTVSSASTKGPSVFPLAPSSKSTSGGTAALGCLVKDYFPEPVTVSWNSGALTSGVHTFPAVLQSSGLYSLSSVVTVPSSSLGTQTYICNVNHKPSNTKVDKKVEPKSCDKTHTCPPCPAPELLGGPSVFLFPPKPKDTLMISRTPEVTCVVVDVSHEDPEVKFNWYVDGVEVHNAKTKPREEQYNSTYRVVSVLTVLHQDWLNGKEYKCKVSNKALPAPIEKTISKAKGQPREPQVYTLPPSRDELTKNQVSLTCLVKGFYPSDIAVEWESNGQPENNYKTTPPVLDSDGSFFLYSKLTVDKSRWQQGNVFSCRVLHEALHSHYTQKSLSLSP light: DIQMTQSPSSLSASVGDSVTITCQASTDISSHLNWYQQKPGKAPELLIYYGSHLLSGVPSRFSGSGSGTDFTFTISSLEAEDAATYYCGQGNRLPYTFGQGTKVEIERTVAAPSVFIFPPSDEQLKSGTASVVCLLNNFYPREAKVQWKVDNALQSGNSQESVTEQDSKDSTYSLSSTLTLSKADYEKHKVYACEVTHQGLSSPVTKSFNRGEC	160 nM
Fv-4-F1386 (antibody, human IgG1, kappa) heavy: QVQLQESGPGLVKPSETLSLTCAVSGHSISHDHAWSWVRQPPGEGLEWIGFISYSGITNYNPSLQGRVTISRDNSKNTLYLQMNSLRAEDTAVYYCARSLARTTAMDYWGEGTLVTVSSASTKGPSVFPLAPSSKSTSGGTAALGCLVKDYFPEPVTVSWNSGALTSGVHTFPAVLQSSGLYSLSSVVTVPSSSLGTQTYICNVNHKPSNTKVDKKVEPKSCDKTHTCPPCPAPELLGGPSVFLFPPKPKDTLMISRTPEVTCVVVDVSHEDPEVKFNWYVDGVEVHNAKTKPREEQYNSTYRVVSVLTVLHQDWLNGKEYKCKVSNKALPAPIEKTISKAKGQPREPQVYTLPPSRDELTKNQVSLTCLVKGFYPSDIAVEWESNGQPENNYKTTPPVLDSDGSFFLYSKLTVDKSRWQQGNVFSCYVLHEALHSHYTQKSLSLSP light: DIQMTQSPSSLSASVGDSVTITCQASTDISSHLNWYQQKPGKAPELLIYYGSHLLSGVPSRFSGSGSGTDFTFTISSLEAEDAATYYCGQGNRLPYTFGQGTKVEIERTVAAPSVFIFPPSDEQLKSGTASVVCLLNNFYPREAKVQWKVDNALQSGNSQESVTEQDSKDSTYSLSSTLTLSKADYEKHKVYACEVTHQGLSSPVTKSFNRGEC	160 nM
Fv-4-F1382 (antibody, human IgG1, kappa) heavy: QVQLQESGPGLVKPSETLSLTCAVSGHSISHDHAWSWVRQPPGEGLEWIGFISYSGITNYNPSLQGRVTISRDNSKNTLYLQMNSLRAEDTAVYYCARSLARTTAMDYWGEGTLVTVSSASTKGPSVFPLAPSSKSTSGGTAALGCLVKDYFPEPVTVSWNSGALTSGVHTFPAVLQSSGLYSLSSVVTVPSSSLGTQTYICNVNHKPSNTKVDKKVEPKSCDKTHTCPPCPAPELLGGPSVFLFPPKPKDTLMISRTPEVTCVVVDVSHEDPEVKFNWYVDGVEVHNAKTKPREEQYNSTYRVVSVLTVLHQDWLNGKEYKCKVSNKALPAPIEKTISKAKGQPREPQVYTLPPSRDELTKNQVSLTCLVKGFYPSDIAVEWESNGQPENNYKTTPPVLDSDGSFFLYSKLTVDKSRWQQGNVFSCKVLHEALHSHYTQKSLSLSP light: DIQMTQSPSSLSASVGDSVTITCQASTDISSHLNWYQQKPGKAPELLIYYGSHLLSGVPSRFSGSGSGTDFTFTISSLEAEDAATYYCGQGNRLPYTFGQGTKVEIERTVAAPSVFIFPPSDEQLKSGTASVVCLLNNFYPREAKVQWKVDNALQSGNSQESVTEQDSKDSTYSLSSTLTLSKADYEKHKVYACEVTHQGLSSPVTKSFNRGEC	130 nM
Fv-4-F1390 (antibody, human IgG1, kappa) heavy: QVQLQESGPGLVKPSETLSLTCAVSGHSISHDHAWSWVRQPPGEGLEWIGFISYSGITNYNPSLQGRVTISRDNSKNTLYLQMNSLRAEDTAVYYCARSLARTTAMDYWGEGTLVTVSSASTKGPSVFPLAPSSKSTSGGTAALGCLVKDYFPEPVTVSWNSGALTSGVHTFPAVLQSSGLYSLSSVVTVPSSSLGTQTYICNVNHKPSNTKVDKKVEPKSCDKTHTCPPCPAPELLGGPSVFLFPPKPKDTLMISRTPEVTCVVVDVSHEDPEVKFNWYVDGVEVHNAKTKPREEQYNSTYRVVSVLTVLHQDWLNGKEYKCKVSNKALPAPIEKTISKAKGQPREPQVYTLPPSRDELTKNQVSLTCLVKGFYPSDIAVEWESNGQPENNYKTTPPVLDSDGSFFLYSKLTVDKSRWQQGNVFSCSVLHEALHSHHTQKSLSLSP light: DIQMTQSPSSLSASVGDSVTITCQASTDISSHLNWYQQKPGKAPELLIYYGSHLLSGVPSRFSGSGSGTDFTFTISSLEAEDAATYYCGQGNRLPYTFGQGTKVEIERTVAAPSVFIFPPSDEQLKSGTASVVCLLNNFYPREAKVQWKVDNALQSGNSQESVTEQDSKDSTYSLSSTLTLSKADYEKHKVYACEVTHQGLSSPVTKSFNRGEC	400 nM

The next binders have a lower Kd than those just listed; values first:

Kd	Binder
86 nM	Fv-4-F1381 (antibody, human IgG1, kappa) heavy: QVQLQESGPGLVKPSETLSLTCAVSGHSISHDHAWSWVRQPPGEGLEWIGFISYSGITNYNPSLQGRVTISRDNSKNTLYLQMNSLRAEDTAVYYCARSLARTTAMDYWGEGTLVTVSSASTKGPSVFPLAPSSKSTSGGTAALGCLVKDYFPEPVTVSWNSGALTSGVHTFPAVLQSSGLYSLSSVVTVPSSSLGTQTYICNVNHKPSNTKVDKKVEPKSCDKTHTCPPCPAPELLGGPSVFLFPPKPKDTLMISRTPEVTCVVVDVSHEDPEVKFNWYVDGVEVHNAKTKPREEQYNSTYRVVSVLTVLHQDWLNGKEYKCKVSNKALPAPIEKTISKAKGQPREPQVYTLPPSRDELTKNQVSLTCLVKGFYPSDIAVEWESNGQPENNYKTTPPVLDSDGSFFLYSKLTVDKSRWQQGNVFSCEVLHEALHSHYTQKSLSLSP light: DIQMTQSPSSLSASVGDSVTITCQASTDISSHLNWYQQKPGKAPELLIYYGSHLLSGVPSRFSGSGSGTDFTFTISSLEAEDAATYYCGQGNRLPYTFGQGTKVEIERTVAAPSVFIFPPSDEQLKSGTASVVCLLNNFYPREAKVQWKVDNALQSGNSQESVTEQDSKDSTYSLSSTLTLSKADYEKHKVYACEVTHQGLSSPVTKSFNRGEC
86 nM	Fv-4-F1384 (antibody, human IgG1, kappa) heavy: QVQLQESGPGLVKPSETLSLTCAVSGHSISHDHAWSWVRQPPGEGLEWIGFISYSGITNYNPSLQGRVTISRDNSKNTLYLQMNSLRAEDTAVYYCARSLARTTAMDYWGEGTLVTVSSASTKGPSVFPLAPSSKSTSGGTAALGCLVKDYFPEPVTVSWNSGALTSGVHTFPAVLQSSGLYSLSSVVTVPSSSLGTQTYICNVNHKPSNTKVDKKVEPKSCDKTHTCPPCPAPELLGGPSVFLFPPKPKDTLMISRTPEVTCVVVDVSHEDPEVKFNWYVDGVEVHNAKTKPREEQYNSTYRVVSVLTVLHQDWLNGKEYKCKVSNKALPAPIEKTISKAKGQPREPQVYTLPPSRDELTKNQVSLTCLVKGFYPSDIAVEWESNGQPENNYKTTPPVLDSDGSFFLYSKLTVDKSRWQQGNVFSCAVLHEALHSHYTQKSLSLSP light: DIQMTQSPSSLSASVGDSVTITCQASTDISSHLNWYQQKPGKAPELLIYYGSHLLSGVPSRFSGSGSGTDFTFTISSLEAEDAATYYCGQGNRLPYTFGQGTKVEIERTVAAPSVFIFPPSDEQLKSGTASVVCLLNNFYPREAKVQWKVDNALQSGNSQESVTEQDSKDSTYSLSSTLTLSKADYEKHKVYACEVTHQGLSSPVTKSFNRGEC
80 nM	Fv-4-F1388 (antibody, human IgG1, kappa) heavy: QVQLQESGPGLVKPSETLSLTCAVSGHSISHDHAWSWVRQPPGEGLEWIGFISYSGITNYNPSLQGRVTISRDNSKNTLYLQMNSLRAEDTAVYYCARSLARTTAMDYWGEGTLVTVSSASTKGPSVFPLAPSSKSTSGGTAALGCLVKDYFPEPVTVSWNSGALTSGVHTFPAVLQSSGLYSLSSVVTVPSSSLGTQTYICNVNHKPSNTKVDKKVEPKSCDKTHTCPPCPAPELLGGPSVFLFPPKPKDTLMISRTPEVTCVVVDVSHEDPEVKFNWYVDGVEVHNAKTKPREEQYNSTYRVVSVLTVLHQDWLNGKEYKCKVSNKALPAPIEKTISKAKGQPREPQVYTLPPSRDELTKNQVSLTCLVKGFYPSDIAVEWESNGQPENNYKTTPPVLDSDGSFFLYSKLTVDKSRWQQGNVFSCSVLHEALHSHFTQKSLSLSP light: DIQMTQSPSSLSASVGDSVTITCQASTDISSHLNWYQQKPGKAPELLIYYGSHLLSGVPSRFSGSGSGTDFTFTISSLEAEDAATYYCGQGNRLPYTFGQGTKVEIERTVAAPSVFIFPPSDEQLKSGTASVVCLLNNFYPREAKVQWKVDNALQSGNSQESVTEQDSKDSTYSLSSTLTLSKADYEKHKVYACEVTHQGLSSPVTKSFNRGEC
77 nM	Fv-4-F1385 (antibody, human IgG1, kappa) heavy: QVQLQESGPGLVKPSETLSLTCAVSGHSISHDHAWSWVRQPPGEGLEWIGFISYSGITNYNPSLQGRVTISRDNSKNTLYLQMNSLRAEDTAVYYCARSLARTTAMDYWGEGTLVTVSSASTKGPSVFPLAPSSKSTSGGTAALGCLVKDYFPEPVTVSWNSGALTSGVHTFPAVLQSSGLYSLSSVVTVPSSSLGTQTYICNVNHKPSNTKVDKKVEPKSCDKTHTCPPCPAPELLGGPSVFLFPPKPKDTLMISRTPEVTCVVVDVSHEDPEVKFNWYVDGVEVHNAKTKPREEQYNSTYRVVSVLTVLHQDWLNGKEYKCKVSNKALPAPIEKTISKAKGQPREPQVYTLPPSRDELTKNQVSLTCLVKGFYPSDIAVEWESNGQPENNYKTTPPVLDSDGSFFLYSKLTVDKSRWQQGNVFSCQVLHEALHSHYTQKSLSLSP light: DIQMTQSPSSLSASVGDSVTITCQASTDISSHLNWYQQKPGKAPELLIYYGSHLLSGVPSRFSGSGSGTDFTFTISSLEAEDAATYYCGQGNRLPYTFGQGTKVEIERTVAAPSVFIFPPSDEQLKSGTASVVCLLNNFYPREAKVQWKVDNALQSGNSQESVTEQDSKDSTYSLSSTLTLSKADYEKHKVYACEVTHQGLSSPVTKSFNRGEC
68 nM	Fv-4-F1389 (antibody, human IgG1, kappa, M428L/N434S/Y436T (EU)) heavy: QVQLQESGPGLVKPSETLSLTCAVSGHSISHDHAWSWVRQPPGEGLEWIGFISYSGITNYNPSLQGRVTISRDNSKNTLYLQMNSLRAEDTAVYYCARSLARTTAMDYWGEGTLVTVSSASTKGPSVFPLAPSSKSTSGGTAALGCLVKDYFPEPVTVSWNSGALTSGVHTFPAVLQSSGLYSLSSVVTVPSSSLGTQTYICNVNHKPSNTKVDKKVEPKSCDKTHTCPPCPAPELLGGPSVFLFPPKPKDTLMISRTPEVTCVVVDVSHEDPEVKFNWYVDGVEVHNAKTKPREEQYNSTYRVVSVLTVLHQDWLNGKEYKCKVSNKALPAPIEKTISKAKGQPREPQVYTLPPSRDELTKNQVSLTCLVKGFYPSDIAVEWESNGQPENNYKTTPPVLDSDGSFFLYSKLTVDKSRWQQGNVFSCSVLHEALHSHTTQKSLSLSP light: DIQMTQSPSSLSASVGDSVTITCQASTDISSHLNWYQQKPGKAPELLIYYGSHLLSGVPSRFSGSGSGTDFTFTISSLEAEDAATYYCGQGNRLPYTFGQGTKVEIERTVAAPSVFIFPPSDEQLKSGTASVVCLLNNFYPREAKVQWKVDNALQSGNSQESVTEQDSKDSTYSLSSTLTLSKADYEKHKVYACEVTHQGLSSPVTKSFNRGEC
